According to publication doi:10.1101/803361:

Tests used:
[1] = biological target: T1, Human heat shock transcription factor 1 (Hsf1), wild type (human), Q00613; experiment: SEC + native gel or EMSA; settings: remark: other sources report otherwise
T1 chain: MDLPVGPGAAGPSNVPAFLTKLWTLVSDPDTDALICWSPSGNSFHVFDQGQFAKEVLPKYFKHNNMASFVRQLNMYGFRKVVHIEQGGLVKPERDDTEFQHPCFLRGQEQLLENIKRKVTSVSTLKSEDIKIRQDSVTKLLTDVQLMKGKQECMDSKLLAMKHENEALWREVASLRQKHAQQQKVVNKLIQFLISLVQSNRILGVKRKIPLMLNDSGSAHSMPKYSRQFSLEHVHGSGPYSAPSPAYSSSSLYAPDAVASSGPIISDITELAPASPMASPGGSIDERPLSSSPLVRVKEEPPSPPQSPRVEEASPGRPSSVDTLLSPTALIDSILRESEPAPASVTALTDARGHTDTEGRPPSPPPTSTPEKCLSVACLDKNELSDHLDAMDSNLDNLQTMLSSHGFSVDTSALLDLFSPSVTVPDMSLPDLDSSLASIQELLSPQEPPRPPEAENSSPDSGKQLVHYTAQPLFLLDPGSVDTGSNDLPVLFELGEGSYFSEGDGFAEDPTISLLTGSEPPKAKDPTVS

[2] = biological target: T1, Human heat shock transcription factor 1 …; experiment: native gel or EMSA; settings: remark: other sources report otherwise

B1: Human heat shock transcription factor 1 (Hsf1), wild type, Q00613 1-529 (natural protein)
chain: MDLPVGPGAAGPSNVPAFLTKLWTLVSDPDTDALICWSPSGNSFHVFDQGQFAKEVLPKYFKHNNMASFVRQLNMYGFRKVVHIEQGGLVKPERDDTEFQHPCFLRGQEQLLENIKRKVTSVSTLKSEDIKIRQDSVTKLLTDVQLMKGKQECMDSKLLAMKHENEALWREVASLRQKHAQQQKVVNKLIQFLISLVQSNRILGVKRKIPLMLNDSGSAHSMPKYSRQFSLEHVHGSGPYSAPSPAYSSSSLYAPDAVASSGPIISDITELAPASPMASPGGSIDERPLSSSPLVRVKEEPPSPPQSPRVEEASPGRPSSVDTLLSPTALIDSILRESEPAPASVTALTDARGHTDTEGRPPSPPPTSTPEKCLSVACLDKNELSDHLDAMDSNLDNLQTMLSSHGFSVDTSALLDLFSPSVTVPDMSLPDLDSSLASIQELLSPQEPPRPPEAENSSPDSGKQLVHYTAQPLFLLDPGSVDTGSNDLPVLFELGEGSYFSEGDGFAEDPTISLLTGSEPPKAKDPTVS
stoichiometry N [1]: 3
stoichiometry N [2]: > 3
